From patent US20260125711, “RNA-GUIDED NUCLEASES AND ACTIVE FRAGMENTS AND VARIANTS THEREOF AND METHODS OF USE” (Life Edit Therapeutics, Inc., published 2026)
Where a chain is given by its changes, count along the chain named. Names and notes keep the numbering of the source.

Experiments:
Settings in all cases: tags: N-terminal SV40 NLS and 3xFLAG; C-terminal nucleoplasmin NLS
LPG10204 = biological target: T1, LPG10204; assay: cell_activity; PAM SEQ ID NOs 146, 147; HEK293T
T1 chain: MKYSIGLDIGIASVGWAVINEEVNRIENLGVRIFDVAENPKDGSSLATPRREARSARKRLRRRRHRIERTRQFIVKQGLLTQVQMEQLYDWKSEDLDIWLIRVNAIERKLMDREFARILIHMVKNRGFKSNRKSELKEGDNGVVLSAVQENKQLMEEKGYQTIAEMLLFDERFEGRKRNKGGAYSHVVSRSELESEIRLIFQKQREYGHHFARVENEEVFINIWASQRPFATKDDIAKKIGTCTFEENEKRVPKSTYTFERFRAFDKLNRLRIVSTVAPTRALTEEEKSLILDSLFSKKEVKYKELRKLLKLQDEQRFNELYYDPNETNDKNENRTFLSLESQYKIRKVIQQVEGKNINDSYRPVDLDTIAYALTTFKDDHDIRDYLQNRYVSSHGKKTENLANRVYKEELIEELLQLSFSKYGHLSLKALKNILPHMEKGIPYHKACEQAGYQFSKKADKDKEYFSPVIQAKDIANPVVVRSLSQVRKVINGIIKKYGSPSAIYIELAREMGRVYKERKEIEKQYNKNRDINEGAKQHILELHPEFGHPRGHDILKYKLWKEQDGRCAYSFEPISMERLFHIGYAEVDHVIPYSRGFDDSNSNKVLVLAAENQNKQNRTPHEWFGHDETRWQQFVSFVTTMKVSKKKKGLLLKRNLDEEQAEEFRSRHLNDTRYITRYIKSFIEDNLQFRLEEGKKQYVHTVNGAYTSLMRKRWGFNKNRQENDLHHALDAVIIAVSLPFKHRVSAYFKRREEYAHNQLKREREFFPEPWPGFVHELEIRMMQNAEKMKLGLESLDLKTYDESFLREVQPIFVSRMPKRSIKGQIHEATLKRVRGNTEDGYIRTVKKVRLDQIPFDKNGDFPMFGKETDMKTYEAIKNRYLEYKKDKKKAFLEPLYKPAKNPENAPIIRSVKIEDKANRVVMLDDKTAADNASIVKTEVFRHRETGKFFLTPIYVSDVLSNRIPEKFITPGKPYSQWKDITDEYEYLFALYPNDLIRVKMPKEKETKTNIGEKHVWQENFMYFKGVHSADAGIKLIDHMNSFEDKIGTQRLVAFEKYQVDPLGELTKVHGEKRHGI
Description: (§1) Guide RNAs targeting several genes were designed for robustness testing of multiple RGNs in HEK293T cells by plasmid delivery. These guides were tested under optimal editing conditions for HEK293T cells in a 96-well plate which involved seeding 10,000-15,000 cells on day 1, lipofection using Lipofectamine 3000 on day 2, and genomic DNA extraction on day 4. […] Then, 0.3 μl of Lipofectamine 3000 diluted in Opti-MEM was added to the plasmid mixture and incubated for 15 mins before adding to cells.

LPG10208 = biological target: T2, LPG10208; assay: cell_activity; PAM SEQ ID NOs 146, 147; HEK293T
T2 chain: T1 chain with Q450E, S467L
Description: as §1

LPG10167 = biological target: T3, LPG10167 (Bacillus toyonensis); assay: cell_activity; PAM nnnnCC; HEK293T
T3 chain: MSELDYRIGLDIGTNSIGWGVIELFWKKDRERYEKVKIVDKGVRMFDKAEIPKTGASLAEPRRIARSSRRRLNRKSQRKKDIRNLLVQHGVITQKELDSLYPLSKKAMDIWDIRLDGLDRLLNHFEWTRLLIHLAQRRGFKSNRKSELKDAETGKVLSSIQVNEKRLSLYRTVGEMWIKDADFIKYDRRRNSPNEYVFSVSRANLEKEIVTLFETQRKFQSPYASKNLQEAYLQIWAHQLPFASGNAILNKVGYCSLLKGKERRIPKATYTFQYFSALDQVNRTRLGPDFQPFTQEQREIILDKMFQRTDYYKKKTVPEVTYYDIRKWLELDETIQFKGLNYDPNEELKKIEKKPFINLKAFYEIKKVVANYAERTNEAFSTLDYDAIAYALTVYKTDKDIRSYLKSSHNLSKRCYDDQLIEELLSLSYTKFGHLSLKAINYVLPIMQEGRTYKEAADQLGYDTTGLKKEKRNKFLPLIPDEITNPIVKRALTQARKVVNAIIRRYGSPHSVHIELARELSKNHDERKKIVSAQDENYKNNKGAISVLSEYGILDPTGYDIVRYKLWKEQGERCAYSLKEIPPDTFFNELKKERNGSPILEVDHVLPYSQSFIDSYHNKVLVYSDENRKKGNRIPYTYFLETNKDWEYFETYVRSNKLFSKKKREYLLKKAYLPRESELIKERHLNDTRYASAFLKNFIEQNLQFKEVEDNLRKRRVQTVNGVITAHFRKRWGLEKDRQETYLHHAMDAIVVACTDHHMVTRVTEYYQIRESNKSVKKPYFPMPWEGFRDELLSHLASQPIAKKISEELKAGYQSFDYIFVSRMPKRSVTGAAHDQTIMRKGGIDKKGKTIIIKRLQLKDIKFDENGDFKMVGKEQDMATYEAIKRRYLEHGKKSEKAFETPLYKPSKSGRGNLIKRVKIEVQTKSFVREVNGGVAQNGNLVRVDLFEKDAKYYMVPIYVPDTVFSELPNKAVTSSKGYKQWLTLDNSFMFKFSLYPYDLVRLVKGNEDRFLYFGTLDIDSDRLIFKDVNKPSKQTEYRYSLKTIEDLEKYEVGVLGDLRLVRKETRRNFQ
Description: (§2) Several of the constructs described above were introduced into mammalian cells. One day prior to transfection, 1×10⁵ HEK293T cells (Sigma) were plated in 24-well dishes in Dulbecco's modified Eagle medium (DMEM) plus 10% (vol/vol) fetal bovine serum (Gibco) and 1% Penicillin-Streptomycin (Gibco). The next day when the cells were at 50-60% confluency, 500 ng of an RGN expression plasmid plus 500 ng of a single gRNA expression plasmid were co-transfected using 1.5 μL of Lipofectamine 3000 (Thermo Scientific) per well, following the manufacturer's instructions. After 48 hours of growth, total genomic DNA was harvested using a genomic DNA isolation kit (Machery-Nagel) according to the manufacturer's instructions.
(§3) Additionally, products from PCR #2 containing Illumina overhang sequences underwent library preparation following the Illumina 16S Metagenomic Sequencing Library protocol. Deep sequencing was performed on an Illumina Mi-Seq platform by a service provider (MOGene). Typically, 200,000 of 250 bp paired-end reads (2×100,000 reads) are generated per amplicon. […] Output alignments were hand-curated to confirm insertion and deletion sites as well as identify microhomology sites at the recombination sites. All experiments were performed in human cells.

LPG10168 = biological target: T4, LPG10168 (Bacillus toyonensis); assay: cell_activity; PAM nnnnCC; HEK293T
T4 chain: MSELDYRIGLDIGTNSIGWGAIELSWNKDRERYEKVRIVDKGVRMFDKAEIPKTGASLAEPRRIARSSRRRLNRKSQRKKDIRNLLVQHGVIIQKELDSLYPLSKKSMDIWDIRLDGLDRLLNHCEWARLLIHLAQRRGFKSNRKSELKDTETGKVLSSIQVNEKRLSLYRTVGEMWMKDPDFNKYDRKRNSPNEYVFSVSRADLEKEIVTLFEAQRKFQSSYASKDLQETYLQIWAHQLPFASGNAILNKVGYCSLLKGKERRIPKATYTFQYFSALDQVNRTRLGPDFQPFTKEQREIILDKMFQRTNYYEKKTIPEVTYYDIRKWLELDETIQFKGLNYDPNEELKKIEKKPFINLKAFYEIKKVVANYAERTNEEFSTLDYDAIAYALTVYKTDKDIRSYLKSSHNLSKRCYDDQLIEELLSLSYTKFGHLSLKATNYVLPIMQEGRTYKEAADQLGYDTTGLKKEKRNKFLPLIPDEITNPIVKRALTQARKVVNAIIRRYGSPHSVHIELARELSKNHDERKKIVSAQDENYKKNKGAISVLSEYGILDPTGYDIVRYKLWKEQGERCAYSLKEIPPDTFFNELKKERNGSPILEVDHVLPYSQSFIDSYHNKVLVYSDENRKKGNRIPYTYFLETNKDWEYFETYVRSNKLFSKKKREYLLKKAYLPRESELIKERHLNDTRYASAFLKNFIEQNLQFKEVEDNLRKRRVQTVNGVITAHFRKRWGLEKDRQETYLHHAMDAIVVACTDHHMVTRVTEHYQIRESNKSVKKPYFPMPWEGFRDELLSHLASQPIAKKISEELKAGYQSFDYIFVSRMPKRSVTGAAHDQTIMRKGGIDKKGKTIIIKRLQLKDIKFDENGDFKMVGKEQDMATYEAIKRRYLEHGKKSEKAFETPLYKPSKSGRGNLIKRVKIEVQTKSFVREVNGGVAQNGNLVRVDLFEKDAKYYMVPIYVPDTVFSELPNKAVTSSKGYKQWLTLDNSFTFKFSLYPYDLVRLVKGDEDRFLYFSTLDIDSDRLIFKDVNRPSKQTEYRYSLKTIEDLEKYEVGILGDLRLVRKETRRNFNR
Description: as §2, §3

B1: SGN005374 ; SGN005374 target (ssRNA ; dsDNA)
RNA: AGUAGCGCGAGCACAGCUAAGGCCAGCCAUAAUUCCUCCAAAGGGAGUUAUUAUGGUAAGGCAUUAUGCCGUGGCGUUGGGGAUCGCCUACAUCCGAUUAGAUCGGAUUCUCCCUAAAAAUGACUAACUUUGUUUAGUCAUUUUUUU
DNA 1: AGTAGCGCGAGCACAGCTAAGGCCA
DNA 2: TGGCCTTAGCTGTGCTCGCGCTACT
In the case of B1, the activity (LPG10204) is reported as 37.5 % indels.

B2: SGN005382 ; SGN005382 target (ssRNA ; dsDNA)
RNA: CUCUCUUUCUGGCCUGGAGGCUAUCGCCAUAAUUCCUCCAAAGGGAGUUAUUAUGGUAAGGCAUUAUGCCGUGGCGUUGGGGAUCGCCUACAUCCGAUUAGAUCGGAUUCUCCCUAAAAAUGACUAACUUUGUUUAGUCAUUUUUUU
DNA 1: CTCTCTTTCTGGCCTGGAGGCTATC
DNA 2: GATAGCCTCCAGGCCAGAAAGAGAG
B2 gave an activity (LPG10204) of 25.5 % indels.

B3: SGN005374 ; SGN005374 target (LPG10208) (ssRNA ; dsDNA)
RNA: B1 RNA
DNA 1: AGTAGCGCGAGCACAGCTAAGGCCA
DNA 2: TGGCCTTAGCTGTGCTCGCGCTACT
Work on B3 yielded an activity (LPG10208) of 47.2 % indels.

B4: SGN005373 ; SGN005373 target (LPG10208) (ssRNA ; dsDNA)
RNA: UAGCCUCCAGGCCAGAAAGAGAGAGGCCAUAAUUCCUCCAAAGGGAGUUAUUAUGGUAAGGCAUUAUGCCGUGGCGUUGGGGAUCGCCUACAUCCGAUUAGAUCGGAUUCUCCCUAAAAAUGACUAACUUUGUUUAGUCAUUUUUUU
DNA 1: TAGCCTCCAGGCCAGAAAGAGAGAG
DNA 2: CTCTCTCTTTCTGGCCTGGAGGCTA
With B4 the activity (LPG10208) was 37.5 % indels.

B5: SGN003667 ; B2M target SGN003667 (ssRNA ; dsDNA)
RNA: AAGAGAGAGUAGCGCGAGCACAGCUGUCAUAGUUCCAUUAAAGCCAUUAAAGAAUGGCUUUGAUGUUUCUAUGAUAAGGGUUUCGGCCCGUGGCGUUGGGGAUCGCCUGCCCAUUUCAAUGGGCUUCUCCCCAUUU
DNA 1: AAGAGAGAGTAGCGCGAGCACAGCT
DNA 2: AGCTGTGCTCGCGCTACTCTCTCTT
B5 was tested, and the activity (LPG10167) was 1.16 % indels.

B6: SGN003669 ; B2M target SGN003669 (ssRNA ; dsDNA)
RNA: UGACAGCAUUCGGGCCGAGAUGUCUGUCAUAGUUCCAUUAAAGCCAUUAAAGAAUGGCUUUGAUGUUUCUAUGAUAAGGGUUUCGGCCCGUGGCGUUGGGGAUCGCCUGCCCAUUUCAAUGGGCUUCUCCCCAUUU
DNA 1: TGACAGCATTCGGGCCGAGATGTCT
DNA 2: AGACATCTCGGCCCGAATGCTGTCA
Work on B6 yielded an activity (LPG10168) of 3.68 % indels.

B7: SGN003668 ; B2M target SGN003668 (ssRNA ; dsDNA)
RNA: GGAGAGACUCACGCUGGAUAGCCUCGUCAUAGUUCCAUUAAAGCCAUUAAAGAAUGGCUUUGAUGUUUCUAUGAUAAGGGUUUCGGCCCGUGGCGUUGGGGAUCGCCUGCCCAUUUCAAUGGGCUUCUCCCCAUUU
DNA 1: GGAGAGACTCACGCTGGATAGCCTC
DNA 2: GAGGCTATCCAGCGTGAGTCTCTCC
For B7, the activity (LPG10168) was 0.61 % indels.
